Source: the supplement of paper PMC10724198
± gives the standard deviation of the averaged measurements.

System: Saccharomyces cerevisiae
Assay: protein stability index of tFT-peptide fusion (C-terminal peptide) (PSI (0-1 scale)); higher = more stable (slower turnover)
Settings: temperature: 30 C
Procedure: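 MPS profiling in S. cerevisiae of the yeast C-terminome library: the last 12 aa of each annotated ORF are fused to the C-terminus of a sfGFP-mCherry timer, after a GGGS linker. Cells are FACS-sorted into 8 mCherry/sfGFP bins and deep-sequenced. PSI runs from 0 (unstable) to 1 (stable); wild type and das1Δ backgrounds, two technical replicates each.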

[1] = genetic background: das1 deletion

Sequence	protein stability index [1]	protein stability index (genetic background: wild type)
LWDNKPVEKKRQ [SHH4 C-terminal 12 aa]	0.712 ± 0.023	0.72 ± 0.027
ESSAFEYPGGRL [BOI1 C-terminal 12 aa]	0.7086 ± 0.0049	0.69 ± 0.0096
HKGSHFYIQLPI [YAL034C-B C-terminal 12 aa]	0.7079 ± 0.0061	0.677 ± 0.0077
FYVCYQLYHLVF [DPM1 C-terminal 12 aa]	0.355 ± 0.012	0.347 ± 0.022
GDTLYEEFGISK [ARO8 C-terminal 12 aa]	0.709 ± 0.0035	0.712 ± 0.046
GVGRIITQPQRY [HUA1 C-terminal 12 aa]	0.7038 ± 0.0018	0.701 ± 0.043
SSDRSAAEKRNT [TYR1 C-terminal 12 aa]	0.699 ± 0.029	0.673 ± 0.039
QAIEDKLNKMSR [BIL1 C-terminal 12 aa]	0.686 ± 0.026	0.683 ± 0.018
RRSFFSVFRSEK [AKL1 C-terminal 12 aa]	0.68 ± 0.019	0.746 ± 0.049
LDDIEKDLRANA [SWI4 C-terminal 12 aa]	0.7 ± 0.021	0.679 ± 0.012
MSLMRKAYHFWC [BAP2 C-terminal 12 aa]	0.726 ± 0.024	0.619 ± 0.039
SNKLKGNPNQVF [MTG1 C-terminal 12 aa]	0.721 ± 0.0079	0.75045 ± 0.00033
KWVGQYPVPGDI [SHM1 C-terminal 12 aa]	0.693 ± 0.0071	0.687 ± 0.04
LENTLKDSGVLQ [GPA2 C-terminal 12 aa]	0.692 ± 0.002	0.717 ± 0.047
DPEPPKEDPHDH [TCP1 C-terminal 12 aa]	0.706 ± 0.0085	0.704 ± 0.051
KNRRGNRSGYRR [THO1 C-terminal 12 aa]	0.703 ± 0.0025	0.689 ± 0.024
LPFGCVDDVNRQ [MSK1 C-terminal 12 aa]	0.706 ± 0.05	0.719 ± 0.021
YNKLESNLQIFM [ABZ1 C-terminal 12 aa]	0.697 ± 0.017	0.744 ± 0.0097
GKEVRKLRPENQ [ILV5 C-terminal 12 aa]	0.691 ± 0.014	0.654 ± 0.024
ALGMYFLGPALK [YGL063C-A C-terminal 12 aa]	0.697 ± 0.02	0.7443 ± 0.0028
NPTIGRDSKKAV [PEX30 C-terminal 12 aa]	0.694 ± 0.011	0.702 ± 0.015

Sequence	protein stability index [1]	protein stability index (genetic background: wild type)
YNDHRLPKRAKK [HSF1 C-terminal 12 aa]	0.6948 ± 0.0036	0.7354 ± 0.0051
EAQLSSNDEPLP [YCR102W-A C-terminal 12 aa]	0.6904 ± 0.004	0.721 ± 0.089
DWLIDVIKEEQL [ARL1 C-terminal 12 aa]	0.728 ± 0.051	0.695 ± 0.028
QRIHQTLEVPNL [FAR1 C-terminal 12 aa]	0.708 ± 0.01	0.692 ± 0.06
QSTAVFFTNKTD [YER076W-A C-terminal 12 aa]	0.707 ± 0.018	0.684 ± 0.046
QDKQVKSWWRFW [CBP4 C-terminal 12 aa]	0.762 ± 0.016	0.7144 ± 0.0053
ALSKDGIYTIAN [PAU1 C-terminal 12 aa]	0.711 ± 0.0085	0.721 ± 0.017
HPRLCVFSCMMI [YJR128W C-terminal 12 aa]	0.6901 ± 0.0059	0.67 ± 0.035
FDIKKANSATLA [TMA46 C-terminal 12 aa]	0.6584 ± 0.0037	0.634 ± 0.019
KGDNITLITSAD [SME1 C-terminal 12 aa]	0.688 ± 0.0079	0.685 ± 0.099
SVLYAIDFSAAF [EMA35 C-terminal 12 aa]	0.717 ± 0.012	0.703 ± 0.02
KLRAKRLAKGGR [RPG1 C-terminal 12 aa]	0.696 ± 0.012	0.705 ± 0.011
VRQVEEDENYDD [CYC8 C-terminal 12 aa]	0.7 ± 0.024	0.748 ± 0.076
YTSKSFSPASSE [YMR181C C-terminal 12 aa]	0.704 ± 0.031	0.668 ± 0.022
LFSSRNTVCAPY [YIL134C-A C-terminal 12 aa]	0.7258 ± 0.0047	0.727 ± 0.018
STFTLNLEDVSK [ECM12 C-terminal 12 aa]	0.711 ± 0.0086	0.634 ± 0.016
SFSRIDCCLPDE [TDA5 C-terminal 12 aa]	0.72 ± 0.013	0.707 ± 0.051
KFRKDEDKSVKQ [TAN1 C-terminal 12 aa]	0.68521 ± 0.00053	0.702 ± 0.056
KVKRLMDFLEED [NSL1 C-terminal 12 aa]	0.678 ± 0.0098	0.694 ± 0.024
IAAFVVAVLFAF [PRY3 C-terminal 12 aa]	0.213 ± 0.012	0.205 ± 0.012
RTHAMLNDIQNI [BNR1 C-terminal 12 aa]	0.72 ± 0.022	0.721 ± 0.091

Sequence	protein stability index [1]	protein stability index (genetic background: wild type)
KTVIENPLEMLL [LAT1 C-terminal 12 aa]	0.6972 ± 0.002	0.694 ± 0.025
GALREVIKLQKQ [SLX9 C-terminal 12 aa]	0.704 ± 0.035	0.656 ± 0.0067
CIEIARHFVLKE [YEL009C-A C-terminal 12 aa]	0.73 ± 0.014	0.708 ± 0.027
AAPQDINQQPNQ [LDS1 C-terminal 12 aa]	0.727 ± 0.028	0.671 ± 0.0087
IFKKIRLLLHVN [MCP1 C-terminal 12 aa]	0.615 ± 0.013	0.2 ± 0.03
LDISASLEKIAT [FMP52 C-terminal 12 aa]	0.677 ± 0.018	0.682 ± 0.011
IQTINEVRTNYM [RSE1 C-terminal 12 aa]	0.69 ± 0.041	0.744 ± 0.11
MQLARRIRGQFI [CSE4 C-terminal 12 aa]	0.691 ± 0.0093	0.646 ± 0.02
ESEKELYNATLA [NHP6A C-terminal 12 aa]	0.697 ± 0.011	0.718 ± 0.0079
VAAGVFIEHDEL [YOS9 C-terminal 12 aa]	0.723 ± 0.0098	0.702 ± 0.013
NYDLQKLYDKID [QDR3 C-terminal 12 aa]	0.705 ± 0.037	0.6544 ± 0.0034
AWIADLDHTVQP [CHS6 C-terminal 12 aa]	0.718 ± 0.017	0.708 ± 0.011
NKNKNKVTKGRR [RAD27 C-terminal 12 aa]	0.668 ± 0.024	0.672 ± 0.026
REGVVPPVGITN [EGO4 C-terminal 12 aa]	0.706 ± 0.031	0.66 ± 0.024
VVQFLVNLVCHT [YGR114C C-terminal 12 aa]	0.4879 ± 0.0042	0.487 ± 0.011
LLEKLDIKDKKE [YVC1 C-terminal 12 aa]	0.661 ± 0.018	0.703 ± 0.024
VNLDVTEDDKQK [STE20 C-terminal 12 aa]	0.6857 ± 0.0021	0.67 ± 0.04
RELREHTKLLHS [YIL082W-A C-terminal 12 aa]	0.6879 ± 0.0029	0.597 ± 0.021
LQSDKDLQSLLT [CUE1 C-terminal 12 aa]	0.698 ± 0.0011	0.683 ± 0.011
